Laboratory results: the domain aggregation screens of Martell et al. (2025)

Test: soluble fraction after stress (log2 fold change); higher = more stays soluble; pooled small domains, quantitative proteomics
Conditions: stress: 50 degC
In short: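 Each library was heated to 50°C as a stress step. The libraries, made up of small protein domains, were pooled and analysed at high throughput by quantitative proteomics. The reported value is the base-two logarithm of the fold change in each protein's soluble amount after stress, taken as a measure of aggregation propensity. The higher the value, the more protein stays in solution.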

Sequence | soluble fraction (log2)
HMNNMVNTLLKLLAEQDVLRGIVRRFTPSSVFVFLQNEEVEVELPLQGRSLAPGQLVELTQEGASVALKRL | -0.647
HMHKFMEQNQDRRLSRMKELIGILSEAAKTYYQESREIMSNFQYDRMYDELLELEKETGVVMAGSPTQKV | -6.44e-05
HMQSEISRIGRILKERRLQLGYTQEYAAEKAGISYSYYTKIERGQQLPSLEVAMVLSKTFSLSMDRWL | -4.77
HMSKPTLTLKSNAYPYNLNGERINNYLGFTYIKKGATLNYQGSKRINGQNYYYIGDGAYIKNTTVGSTNN | -1.51
HMAAIPATVDEETYRRLKPMLKQYGILYHEFKPLRSGKKGAVELIFMEKDLALVQELLSRLKKEK | 0.422
HMALRFMAYGRINGTNVHFRTGASASTASLGRYSRGTEFGVYDKIGGWYRVRLLSTGQEGYVYSRYLTLTG | -2.67
HMNQNAMIGAHIRNLRLAKKLTLKQLSDESGLSVGFLSQLERGMSSIAIDTLARLAHILGADLSSFF | -0.763
HMEKKEWVIYITGAVKKPGVYRIPEGARVYQALEAAGGFTPEADRDAVNLAAMLQDGAHIKFPAVGEEV | 0.117
HMKRSFGYIRLLPSKRYQASYIGPDSQRHAAPETFTRKMDAEGWLSAERRLIEWDQWTSPEQRAAQARLD | -0.591
HMPSLSREREAAILEMIERRPSTAEDVASGLGLAVNEVIKLLDGTALRGSVETFQSGEEIYYTRKR | 0.144
HMQMTTPQMVPLFTDLSVDDSASIIKDLERQAVPYQIKSDGAIIMVPKDKVTRLRMKLAESGLPK | 0.25
HMISEWDAAYSYAKQYYEENGHLFVPKKYVTSEGAALGKWIWEQRDSYLGLSSYKISDKKIEMLEDIGMFW | -4.02
HMKNDIQLKHDVEEELQWDPAVDASRFAVQAKDGVVTLSGGVDTFADKHAAEEAIRRVAGVTALVIHVDV | -0.107
HMEEIIPIRFLRHRVKRRETIFGLTQKYNITEDQLKRYNTRLYSEALERKMVLQIPVFPEVDED | -2.31
HMITTLLVENLQDVGMRLDHYLVYNLIKYSRSHIQSFIRSGDIRVNGKKVKTGYSLELKDLIHIEMP | -3.75
HMEQVLNVAVRRGELIMSSAAEQTVRIYSSAGSMVWQGKVSASDVTVELPSGVYVVNGKKVV | -1.19
HMDVLNPGDKAVTTASWLNFRTGPGMQNKVASVLARNTTVNIIEKSNEWYKVSLANGSTGYVHGMYLSKIT | -0.0937
HMAPELSGEKLWDAQDVAMFLRVKPTTVWSYVSRDGFPAPVSQAGRAGMWSEPLVVQWYLSRPG | -0.223
HMAKNSVLTIELWNSTAFKWRKDTEPYSESMSVDFNRSVRLTDGISIMFSKFGFVPGIQYLIPLQT | -0.0652
HMRESDQSTVELSLERTIQEALMVNPRTSSVEEFSFEWGTGRVKVSFIVYSVDGEPFTVDSIIE | -2.27
HMNRETAISIYRILHILEEPYKEVFTLRTLGDLSYREIADIFGKQENWARVTYHRAKLKIREALVS | -2
HMTINQIDPASGRKVGYWIITGEMKPKEGFSPDNKIEEGIYVNSRKSGKWIKYWPNGNVRSEIIYKNGR | -0.549
HMALYSEQVSEIEKALMSLPPKYQLVMLLLYAEDLKYEQIAEILDEPIGTVKTKIHRARKILKERF | -0.46
HMQAKQVAIPDVANYSVTDAIKKLQDAGFIVSDEQREEANETVSEGKVSRTSPAAGSIRKEGTEIILYKSL | 0.198
HMNEKGTNSTINEITRISKPGRRVYVGSAEIPKVKSGRGLVLISTSKGVMTGAEAAKAKLGGELLLKV | 0.0901
HMGPTLSPAEKRVFEVIPYDAILQDMVIRAAELPPGEVLAALTTLELKGLIKRLPGNLVMRRAR | 0.0188
HMHRTMFYLDVDLAEGQSVKMAVHEDDDPGELAARFADEHQLKSRAMEKLRSVIEENVRLHRRNQ | -0.306
HMSLTEESAKSLIGLTENEAVKVAAERGWTVRVAMRDGEAFMLTQDYSENRVNLTVMKTLVTAVTI | -0.273
HMNNVDQLIEQYKTLPGGLLPLLHAIKHALGYIPESTVGSIAKGFNLSRAEVHGVISFYHDFNTQP | 0.0707
HMTEKQYIYSIGDRVNIGTDEFEIVNINEKEVSIADVTFPMLVKQISYEEFDRKVKENPFNDHLII | 0.0642
